# Experimental data taken from the supplement of paper PMC12764529.
# ± gives the half width of the 95% confidence interval.
# Experiment: folding stability dG unfold from trypsin proteolysis; higher = more stable
# How it was run: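 Only designs with AlphaFold2 dimer inter-PAE above 15 were retained; each was a mini-protein under 80 residues with no cysteine, in a PA-tagged cDNA display construct. After digestion with trypsin and chymotrypsin and sequencing, K50 was inferred by Bayesian fitting of counts, and unfolding free energy was derived per protease or combined against a sequence-predicted unfolded-state K50 and a shared folded-state K50.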
row,Sequence,folding stability dG unfold
1,SAMSVKTYSSTSVDPKTGKTYTTTTTVTPKPEPPWLVTTTTYLVDPATGTTTLLSTTTTTLDPNDPTLLSAG [r14_939_JUSTAS],8.82 ± 0.297 kJ/mol
2,SAGGSAGGMLLSSEEELEEELKRVREEGIGEVEVQVVDEKGNIHTLPTFVENPGPEPLPNEKLLSAGGSAGG [r6_258_JUSTAS],2.34 ± 0.276 kJ/mol
3,SAGGDTVTTTETFPEKPILTVTTTSFSPSGTTTTTTTTYEVENGKIVSKLSTTTTTTAVAPAPPGTASAGGS [r16_682_JUSTAS],2.97 ± 0.142 kJ/mol
4,SAGGMKIKTKSGKELTLKKIKLKYKNKEYEIENLKIKAIKYDPKKKIVHIEVTHPNGKKYTFDLKIKSAGGS [r8_215_TrMRF],7.06 ± 0.218 kJ/mol
5,SAGGSAGGSAKVVVDEVEVEVFKNEDGEEVLRVRFKKTGEEVEIPLEDLEKLELPPGAVVEPSAGGSAGGSA [r18_288_TrROS_Hall],1.03 ± 0.146 kJ/mol
6,SAGGSTVTVTVRRRVRVEVNGELREFEVEVTVTVRLPPPPPVIELPPEQVTRIEWDEETQELRVEVDSAGGS [r8_28_TrROS_Hall],12.5 ± 0.879 kJ/mol
7,SAGMTAEELAEELAKELEVEVTLENGEKRRVRVEVKVERLPDGTLLLTAKVENEETGETFEIKIEIKLESAG [r5_397_TrROS_Hall],12.1 ± 0.544 kJ/mol
8,SAGGSAGGMVKVSSDPATGKVYVTYPGADPEAVAEKVKKEYGAKKIKVEKDPNKDVTTITITVESAGGSAGG [r6_662_JUSTAS],-4.25 ± 1.88 kJ/mol
9,SAGGSAGGGIDLSNPEDIEEALKKSGIVGVFKVKIIPLPGGKWKKIIEPVKLLPKEELEKAGLISAGGSAGG [r6_402_TrMRF],3.45 ± 0.18 kJ/mol
10,SAGGSAFKGMPPEQVKRVIEIDHPNGKDIYIVRYKGPGHMMIFPPKEGKPIYIPMPLDEIKEFLLSSAGGSA [r15_810_TrROS],1.41 ± 0.226 kJ/mol
11,SAGGSAGGSAGGKWIMVDSPEDIKEFAEDQGYKIKVDNVHPFPGDKNHYMVWIEIEPPGSAGGSAGGSAGGS [r10_126_TrROS],4.97 ± 0.502 kJ/mol
12,SAGGWITPELIEEIAKTIAEENPENGKEVPIEVVIPFPNSVIKIEIEFDPSNGKIEIEDIKVIPPNDLSAGG [r13_37_TrROS],2.8 ± 0.502 kJ/mol
13,SAGGGMLEVTREPSPDGVTRYVVTVPADRTVTVTRPDGTTTTTAAPDADAVITYTVPPGTPVAVSLTPSAGG [r13_82_JUSTAS],2.32 ± 0.126 kJ/mol
14,ARELPVEEIREAVREFLRKHGFRVVSEEVVELPDGSVLVFVEAEPEDKSTRYRLVITRPVDGSVRLVIEPVS [r1_460_TrMRF],11.1 ± 0.184 kJ/mol
15,SPSRPTLVTTYTFDPSGVPTATTKEITPEEVEELEKKGWKKLSEDPEKGLITLEKKLPTSPQKIEVTILPSA [r9_5_JUSTAS],-1.68 ± 0.837 kJ/mol
16,SAGGSAMRMERIKLPDGKDITIMRHPNEPRQYQLFFPGGRSISVNFPSPEEAIDHALEWIKNGKPFSAGGSA [r15_38_TrROS],2.55 ± 0.502 kJ/mol

row,Sequence,folding stability dG unfold
1,SAGGSAGGSAGIKIEWEPNPNGSWRMKIEIPNPNGNPKKIEVWANPNGKIREDEAKEILNSAGGSAGGSAGG [r11_759_TrROS],2.96 ± 0.502 kJ/mol
2,SAGGSAGGSASYIPVTYSFFFPDKPYVERVEAEYELGPDGTPRILSAKVEVFPVDFSPDELSAGGSAGGSAG [r3_138_TrMRF],3.45 ± 0.163 kJ/mol
3,SAGGSAGGLEIAKELGFEKIEIEEVKENRVVLKLKDKNGKEYKIEFEFDPETGEIKILKIEPLPSAGGSAGG [r6_526_TrMRF],13 ± 0.879 kJ/mol
4,SAKTKTIEIEVKIKLIEIDPKTGKKTEKEFTAKATITYDEENNVVTIKIEFKDNGKTITITLPPGAKIKSAG [r14_587_TrROS_Hall],8.79 ± 0.41 kJ/mol
5,SAGKVTVERDPSTNVVNVTVEVERERDVPPGAPVTETIIIPARVKFDEDGKLVEPISLDDILAAIRAAGSAG [r5_239_TrMRF],0.923 ± 0.502 kJ/mol
6,SAGGSAGGSAGGSKPNNFKNIPKPVFKFKITTTEWKKNKDGTWTPVSTSTAEVTVWSNTSAGGSAGGSAGGS [r4_288_TrMRF],13.4 ± 0.46 kJ/mol
7,SMVVPVLIEKPYTSPEELEEFKKEAEELVKKLAEETGYPIKVLETKYTTDPNTNVVSLTLVVEIVSPELNSA [r9_105_JUSTAS],8.23 ± 0.418 kJ/mol
8,SAGGKVEVELEDGKLRVKVFDKNGKLVEEVEVELKPVTIVIPGLSEEELQELKEKFPGAKITILEGQKSAGG [r13_235_TrROS_Hall],7.24 ± 0.264 kJ/mol
9,SAGGSAGGSAMLRIKIYYKKNGEEYEIEVEGSLEEALKEAAKKLGLSEDEIKKIEIEELPESAGGSAGGSAG [r3_79_TrROS_Hall],11.1 ± 0.502 kJ/mol
10,SAGGSAGGSAGGLEIELPNARIRIEELEGEPRRIRVRVEFFPPDGGRLSAEAEFDILPDLSAGGSAGGSAGG [r17_184_TrMRF],11.1 ± 0.234 kJ/mol
11,SAVVLKEPGPVTTVVTTDPATGVTTTVTTDPSAGTTTVTTTDPASAAVTTTTYTTLPDGTPVPTTTTTPASA [r9_1073_JUSTAS],5.11 ± 0.13 kJ/mol
12,SAGGSAGGPLYRVLILLKKPNGEPLLLPLVAEDPEKALELAERLRKEYEEKGYELVAVEIYEFPSAGGSAGG [r6_869_TrMRF],18.3 ± 0.92 kJ/mol
13,SAKKENSVPVTIEIELEFDSIEKAKKAIEKLAAEIEKETGAKIEIKVEIEEKENNYIVKVELTIYLPKESAG [r14_626_TrMRF],6.69 ± 0.251 kJ/mol
14,SAMKIIIKLPKNVKPIKAEELEKIPGIKVVKIEIYKGEDGVYYLLIEIEESIPPEKLKELEEKIREIAGSAG [r14_421_TrMRF],18.6 ± 1.17 kJ/mol
15,SAGMTVKVKVEVKTKYFDKNGKLVKEEKKTVEVEVEVKIVIELKPEDLEKAKELAEKLGIEITEEELKSAGG [r19_315_TrROS_Hall],5.27 ± 1.21 kJ/mol
